Like-named read-outs stand apart in the source and are kept apart here.
Legend:
[1] = target: T1, human IL-7Rα (IL-7R) on human PBMCs / monocytes (human, UniProt P16871 21-459); test: cell-based or functional assay
T1 chain: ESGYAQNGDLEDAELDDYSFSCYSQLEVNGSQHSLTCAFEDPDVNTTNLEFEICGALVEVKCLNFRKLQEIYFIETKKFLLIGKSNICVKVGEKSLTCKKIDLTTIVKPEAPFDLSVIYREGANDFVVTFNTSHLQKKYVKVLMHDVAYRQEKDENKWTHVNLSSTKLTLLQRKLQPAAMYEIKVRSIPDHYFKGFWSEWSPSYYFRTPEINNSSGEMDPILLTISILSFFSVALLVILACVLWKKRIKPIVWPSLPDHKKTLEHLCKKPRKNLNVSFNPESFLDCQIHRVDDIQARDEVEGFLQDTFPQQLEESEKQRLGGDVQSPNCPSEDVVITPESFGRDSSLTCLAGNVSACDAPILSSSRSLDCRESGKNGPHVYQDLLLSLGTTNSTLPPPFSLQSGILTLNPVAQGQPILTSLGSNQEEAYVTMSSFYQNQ

[2] = target: T1, human IL-7Rα (IL-7R) on human PBMCs / …; test: cell-based or functional assay

IL-7 induced pSTAT5 in hPBMCs EC50 [1]: 2.86 nM | IL-7 induced pSTAT5 in hPBMCs EC50 [2]: 2.86 nM
B1: V7R-2E9 (VHH, not shown: small tags and cut ends)
VHH: EVQLVESGGGLVQAGGSLRLSCESSISTFSSDAMGWFRQAPGKEREFLAAIGWSGAVTHYSDSVQGRFTISRDNAKNTVYLQMNSLKSEDTGRYYCAEDYDTDVWQYWGQGTQVTVSS
